Data on 1 molecule can be found in US20250282885A1 (VST BIO, published 2025).

Usually Kd stands for the equilibrium constant for the complex coming apart. What is called koff is the first-order rate constant of dissociation. Broadly, the kon is a measure of how fast the partners come together. High values mean fast association, low ones slow association.

The target of experiment [1] is human Sdc2 on Human Umbilical Vein Endothelial Cells (HUVEC) (human, UniProt P34741 19-201). Kind of experiment: cell-based or functional assay.
Chain of human Sdc2 on Human Umbilical Vein Endothelial Cells (HUVEC) (P34741 19-201 limits assumed): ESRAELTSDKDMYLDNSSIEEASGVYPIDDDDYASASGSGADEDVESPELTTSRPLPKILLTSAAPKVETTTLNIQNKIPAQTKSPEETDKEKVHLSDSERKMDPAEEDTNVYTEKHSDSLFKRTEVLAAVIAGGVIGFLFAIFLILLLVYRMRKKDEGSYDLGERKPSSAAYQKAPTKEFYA
Experiment [2] concerns the target T1, human Sdc2 (human, UniProt P34741 19-144, limits assumed).
T1 construct: Antigen of the Octet tandem binning, loaded on biosensors at 100 nM; also called huSdc2; hSdc2
Nature of the experiment: Kd (human Sdc2), summary table of the mAbs.

The target in experiment [3] is T1, human Sdc2. Nature of the experiment: Octet BLI, heading box over the sensorgram.
Experiment [4] has as its target T1, human Sdc2. Nature of the experiment: Octet tandem binning; saturating Ab f3 19838-6N03-A. (Biolayer interferometry detects binding as a change in optical thickness at a sensor tip.)
In experiment [5] the target is T1, human Sdc2. Kind of experiment: Octet tandem binning; saturating Ab m2 19838-8G17-A.
In experiment [6] the target is T1, human Sdc2. Kind of experiment: Octet tandem binning; saturating Ab f9 19838-6-E17-A.
Experiment [7] addresses T1, human Sdc2. Nature of the experiment: Octet tandem binning; saturating Ab f12 19838-6-N03-A.
The target of experiment [8] is T1, human Sdc2. Nature of the experiment: Octet tandem binning; saturating Ab m1 19838-20H19-AB.
Experiment [9] deals with T1, human Sdc2. Kind of experiment: Octet tandem binning; saturating Ab f10 19838-10-I12-A.
Experiment [10] addresses T1, human Sdc2. Kind of experiment: Octet tandem binning; saturating Ab f11 19838-20-H19-A.
Experiment [11] concerns the target T1, human Sdc2. Kind of experiment: Octet tandem binning; saturating Ab f4 19844-R3-P3-C11.
For experiment [12], the target named is T1, human Sdc2. Kind of experiment: Octet tandem binning; saturating Ab f6 19844-R3-P3-E09.
Experiment [13] concerns the target T1, human Sdc2. Kind of experiment: Octet tandem binning; saturating Ab m7 19844-R3-P1-E07.
For experiment [14], the target named is T1, human Sdc2. Nature of the experiment: Octet tandem binning; saturating Ab f5 19844-R4M-P3-E06.
In experiment [15] the target is T1, human Sdc2. Kind of experiment: Octet tandem binning; saturating Ab f8 19844-R4M-P2-C02.
The target of experiment [16] is T1, human Sdc2. Kind of experiment: Octet tandem binning; saturating Ab m4 19844-R4M-P1-A10.
The target of experiment [17] is T1, human Sdc2. Nature of the experiment: Octet tandem binning; Buffer in place of a saturating Ab.
In experiment [18] the target is T1, human Sdc2. Nature of the experiment: Octet BLI, HIS1K sensor loaded with huSdc2, antibody as sample; Full R2 0.9943.
The target in experiment [19] is T1, human Sdc2. Nature of the experiment: Octet tandem binning; saturating Ab m6 19838-20H19-AA (marked non-binding ligand).
Experiment [20] deals with T1, human Sdc2. Nature of the experiment: Octet tandem binning; saturating Ab m3 19844-R3-P1-C02 (row boxed, self-self >0.09).
Experiment [21] concerns the target T1, human Sdc2. Kind of experiment: Octet tandem binning; saturating Ab m8 19844-R4M-P1-B01 (marked non-binding ligand).
For experiment [22], the target named is T1, human Sdc2. Kind of experiment: Octet tandem binning; saturating Ab m5 19844-R4M-P3-A12 (row boxed, self-self >0.09).

T1 sequence (P34741 19-144 limits assumed): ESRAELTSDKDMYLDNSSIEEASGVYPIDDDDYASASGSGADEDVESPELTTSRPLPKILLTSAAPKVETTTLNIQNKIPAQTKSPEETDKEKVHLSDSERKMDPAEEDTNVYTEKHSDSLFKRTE

B1: R3-P3-A12 (antibody, human IgG1, kappa, V domains shown)
VH: EVQLVESGGGLVQPGRSLRLSCGVSGFTFSSFGMHWVRQAPGKGLEWVAVISNDALHKNYGDSVKGRFTVTRDNSRNTLFLQMTSLRPEDTAVYYCAKDVVRGHTSGSLGSWGQGTLVTVSS
VL: not shown
notes: human IgG1 kappa from the phage campaign
In the case of B1, the “% Inhibition of VEGFA-induced permeability at 24hrs (20ug/ml)” value in experiment [1] was 90%. Moreover, the results for the Kd in experiment [2], in experiment [3] and in experiment [18] were 2.8 nM, approximately 2.8 nM and 2.8 nM, respectively. Moreover, the “raw competing-Ab binding signal” value was found to be 0.704 in [4]; 0.548 in experiment [5]; 0.594 in experiment [6]; 0.794 in experiment [7]; 0.459 in [8]; 0.3 in [9]. Besides, the “raw competing-Ab binding signal” value in experiment [10] came to 0.529; in experiment [11], 0.0654; in experiment [12], 0.322; in experiment [13], 0.618; in experiment [14], 0.618; in [15], 0.562. Also, the “raw competing-Ab binding signal” value was found to be 0.539 in experiment [16]; 0.599 in [17]; 0.636 in experiment [19]; 0.562 in experiment [20]; 0.619 in experiment [21]; 0.61 in [22]. In addition, in experiment [18], the koff came out at 0.00131 s⁻¹. Further, the kon in experiment [18] turned out to be 469000 M⁻¹ s⁻¹.
